Results reported in patent US20190338011A1.

Assays:
[1] = target: human MIC-A (expressed on P815 mastocytoma cells) (human) (UniProt Q29983); assay: cell-based or functional assay
[2] = target: human NKG2D ligand on human tumor cell lines (Jurkat, RPMI8866, K562, Daubi, U937, ECC-1); assay: cell-based or functional assay

Sequence of UniProt Q29983 (Q29983 24-383): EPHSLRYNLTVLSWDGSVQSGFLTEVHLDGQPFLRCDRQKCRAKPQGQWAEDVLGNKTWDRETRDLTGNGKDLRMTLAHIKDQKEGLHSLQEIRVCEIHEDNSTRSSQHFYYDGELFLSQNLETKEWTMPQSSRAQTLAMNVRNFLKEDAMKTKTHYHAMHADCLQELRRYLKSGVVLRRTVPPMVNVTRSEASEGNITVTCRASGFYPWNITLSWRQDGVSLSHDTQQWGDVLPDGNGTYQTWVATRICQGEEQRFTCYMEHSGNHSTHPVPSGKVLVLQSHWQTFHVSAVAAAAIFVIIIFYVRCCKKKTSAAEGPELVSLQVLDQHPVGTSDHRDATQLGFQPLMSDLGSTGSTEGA

human chimeric NKG2D (human CD3ζ attached to the N-terminus of human NKG2D) (receptor)
Specific Lysis (%) of P815/MIC-A, Effector:Target Ratio 1 [1]: 5.4% | Specific Lysis (%) of P815/MIC-A, Effector:Target Ratio 5 [1]: 17.3% | Specific Lysis (%) of P815/MIC-A, Effector:Target Ratio 25 [1]: 35.4% | Specific Lysis (%) of K562, Effector:Target Ratio 1, with control antibody [2]: 3.1% | Specific Lysis (%) of K562, Effector:Target Ratio 5, with control antibody [2]: 17.6% | Specific Lysis (%) of K562, Effector:Target Ratio 25, with control antibody [2]: 53.8% | Specific Lysis (%) of RPMI8866, Effector:Target Ratio 1, with control antibody [2]: 9.3% | Specific Lysis (%) of RPMI8866, Effector:Target Ratio 5, with control antibody [2]: 27.4% | Specific Lysis (%) of RPMI8866, Effector:Target Ratio 25, with control antibody [2]: 41.6%
